Measurements reported in the supplement of paper PMC5998384.

How the values were obtained:
[1] = system: HeLa Kyoto; assay: thermal stability score vs G1/S (z-score of summed log2 fold changes over temperatures); higher = more thermally stable than in G1/S
[2] = system: HeLa Kyoto; assay: solubility change mitosis vs G1/S (difference of NP-40 vs SDS log2 ratios) (log2 ratio difference); higher = more soluble in mitosis
[3] = system: HeLa Kyoto; assay: solubility in G1/S (NP-40 vs SDS abundance) (log2 ratio); higher = more soluble; conditions: cell cycle stage: G1/S
[4] = system: HeLa Kyoto; assay: melting temperature (median over replicates), in situ; higher = more thermally stable
[5] = cell cycle stage: early G1 (4.5 h after nocodazole release)
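For melting temperature (median over replicates), in situ in this document: HeLa Kyoto cells synchronized by double thymidine or nocodazole block, proteins quantified by TMT10plex mass spectrometry, three independent biological replicates.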
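For solubility change mitosis vs G1/S (difference of NP-40 vs SDS log2 ratios) in this document: synchronized HeLa Kyoto cells (double thymidine block for G1/S, nocodazole release for mitosis), protein amounts in NP-40 versus SDS lysates quantified by mass spectrometry, three biological replicates.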
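For solubility in G1/S (NP-40 vs SDS abundance) in this document: HeLa Kyoto cells arrested at G1/S by double thymidine block, proteins quantified by TMT10plex mass spectrometry in mild NP-40 versus SDS extracts, three biological replicates.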
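For thermal stability score vs G1/S (z-score of summed log2 fold changes over temperatures) in this document: synchronized HeLa Kyoto cells, proteins quantified by TMT10plex mass spectrometry, three biological replicates, mitosis taken 0.5 h after nocodazole release, G1/S directly after double thymidine block.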

| Sequence | thermal stability score [1, 5] | thermal stability score ([1]; cell cycle stage: mitosis) | solubility change mitosis (log2) [2] | solubility in G1/S (log2) [3] | melting temperature ([4]; cell cycle stage: G1/S) [°C] | melting temperature ([4]; cell cycle stage: mitosis) [°C] |
| --- | --- | --- | --- | --- | --- | --- |
| MKSLSLLLAVALGLATAVSAGPAVIECWFVEDASGKGLAKRPGALLLRQGPGEPPPRPDLDPELYLSVHDPAGALQAAFRRYPRGAPAPHCEMSRFVPLPASAKWASGLTPAQNCPRALDGAWLMVSISSPVLSLSSLLRPQPEPQQEPVLITMATVVLTVLTHTPAPRVRLGQDALLDLSFAYMPPTSEAASSLAPGPPPFGLEWRRQHLGKGHLLLAATPGLNGQMPAAQEGAVAFAAWDDDEPWGPWTGNGTFWLPTVQPFQEGTYLATIHLPYLQGQVTLELAVYKPPKVSLMPATLARAAPGEAPPELLCLVSHFYPSGGLEVEWELRGGPGGRSQKAEGQRWLSALRHHSDGSVSLSGHLQPPPVTTEQHGARYACRIHHPSLPASGRSAEVTLEVAGLSGPSLEDSVGLFLSAFLLLGLFKALGWAAVYLSTCKDSKKKAE [TAPBP] | 0.903 | 1.98 | 0.000151 | 0.297 | 52.5 | 53 |
| MKVARFQKIPNGENETMIPVLTSKKASELPVSEVASILQADLQNGLNKCEVSHRRAFHGWNEFDISEDEPLWKKYISQFKNPLIMLLLASAVISVLMHQFDDAVSITVAILIVVTVAFVQEYRSEKSLEELSKLVPPECHCVREGKLEHTLARDLVPGDTVCLSVGDRVPADLRLFEAVDLSIDESSLTGETTPCSKVTAPQPAATNGDLASRSNIAFMGTLVRCGKAKGVVIGTGENSEFGEVFKMMQAEEAPKTPLQKSMDLLGKQLSFYSFGIIGIIMLVGWLLGKDILEMFTISVSLAVAAIPEGLPIVVTVTLALGVMRMVKKRAIVKKLPIVETLGCCNVICSDKTGTLTKNEMTVTHIFTSDGLHAEVTGVGYNQFGEVIVDGDVVHGFYNPAVSRIVEAGCVCNDAVIRNNTLMGKPTEGALIALAMKMGLDGLQQDYIRKAEYPFSSEQKWMAVKCVHRTQQDRPEICFMKGAYEQVIKYCTTYQSKGQTLTLTQQQRDVYQQEKARMGSAGLRVLALASGPELGQLTFLGLVGIIDPPRTGVKEAVTTLIASGVSIKMITGDSQETAVAIASRLGLYSKTSQSVSGEEIDAMDVQQLSQIVPKVAVFYRASPRHKMKIIKSLQKNGSVVAMTGDGVNDAVALKAADIGVAMGQTGTDVCKEAADMILVDDDFQTIMSAIEEGKGIYNNIKNFVRFQLSTSIAALTLISLATLMNFPNPLNAMQILWINIIMDGPPAQSLGVEPVDKDVIRKPPRNWKDSILTKNLILKILVSSIIIVCGTLFVFWRELRDNVITPRDTTMTFTCFVFFDMFNALSSRSQTKSVFEIGLCSNRMFCYAVLGSIMGQLLVIYFPPLQKVFQTESLSILDLLFLLGLTSSVCIVAEIIKKVERSREKIQKHVSSTSSSFLEV [ATP2C1] | -1.8 | -1.34 | -0.0972 | -0.143 | 54.1 | 54.2 |
| MKVTLSALDTSESSFTPLVVIELAQDVKEETKEWLKNRIIAKKKDGGAQLLFRPLLNKYEQETLENQNLYLVGASKIRMLLGAEAVGLVKECNDNTMRAFTYRTRQNFKGFDDNNDDFLTMAECQFIIKHELENLRAKDEKMIPGYPQAKLYPGKSLLRRLLTSGIVIQVFPLHDSEALKKLEDTWYTRFALKYQPIDSIRGYFGETIALYFGFLEYFTFALIPMAVIGLPYYLFVWEDYDKYVIFASFNLIWSTVILELWKRGCANMTYRWGTLLMKRKFEEPRPGFHGVLGINSITGKEEPLYPSYKRQLRIYLVSLPFVCLCLYFSLYVMMIYFDMEVWALGLHENSGSEWTSVLLYVPSIIYAIVIEIMNRLYRYAAEFLTSWENHRLESAYQNHLILKVLVFNFLNCFASLFYIAFVLKDMKLLRQSLATLLITSQILNQIMESFLPYWLQRKHGVRVKRKVQALKADIDATLYEQVILEKEMGTYLGTFDDYLELFLQFGYVSLFSCVYPLAAAFAVLNNFTEVNSDALKMCRVFKRPFSEPSANIGVWQLAFETMSVISVVTNCALIGMSPQVNAVFPESKADLILIVVAVEHALLALKFILAFAIPDKPRHIQMKLARLEFESLEALKQQQMKLVTENLKEEPMESGKEKAT [ANO10] | -0.93 | -1.12 | -0.214 | -0.181 | 53.2 | 51.9 |
| MLAARLVCLRTLPSRVFHPAFTKASPVVKNSITKNQWLLTPSREYATKTRIGIRRGRTGQELKEAALEPSMEKIFKIDQMGRWFVAGGAAVGLGALCYYGLGLSNEIGAIEKAVIWPQYVKDRIHSTYMYLAGSIGLTALSAIAISRTPVLMNFMMRGSWVTIGVTFAAMVGAGMLVRSIPYDQSPGPKHLAWLLHSGVMGAVVAPLTILGGPLLIRAAWYTAGIVGGLSTVAMCAPSEKFLNMGAPLGVGLGLVFVSSLGSMFLPPTTVAGATLYSVAMYGGLVLFSMFLLYDTQKVIKRAEVSPMYGVQKYDPINSMLSIYMDTLNIFMRVATMLATGGNRKK [GHITM] | -2.96 | -4.77 | 0.0227 | -0.101 | 54.7 | 55.1 |
| MLARAARGTGALLLRGSLLASGRAPRRASSGLPRNTVVLFVPQQEAWVVERMGRFHRILEPGLNILIPVLDRIRYVQSLKEIVINVPEQSAVTLDNVTLQIDGVLYLRIMDPYKASYGVEDPEYAVTQLAQTTMRSELGKLSLDKVFRERESLNASIVDAINQAADCWGIRCLRYEIKDIHVPPRVKESMQMQVEAERRKRATVLESEGTRESAINVAEGKKQAQILASEAEKAEQINQAAGEASAVLAKAKAKAEAIRILAAALTQHNGDAAASLTVAEQYVSAFSKLAKDSNTILLPSNPGDVTSMVAQAMGVYGALTKAPVPGTPDSLSSGSSRDVQGTDASLDEELDRVKMS [STOML2] | -3.41 | -3.22 | 0.0559 | 0.262 | 56.9 | 59.3 |
| MLCGRWRRCRRPPEEPPVAAQVAAQVAAPVALPSPPTPSDGGTKRPGLRALKKMGLTEDEDVRAMLRGSRLRKIRSRTWHKERLYRLQEDGLSVWFQRRIPRAPSQHIFFVQHIEAVREGHQSEGLRRFGGAFAPARCLTIAFKGRRKNLDLAAPTAEEAQRWVRGLTKLRARLDAMSQRERLDHWIHSYLHRADSNQDSKMSFKEIKSLLRMVNVDMNDMYAYLLFKECDHSNNDRLEGAEIEEFLRRLLKRPELEEIFHQYSGEDRVLSAPELLEFLEDQGEEGATLARAQQLIQTYELNETAKQHELMTLDGFMMYLLSPEGAALDNTHTCVFQDMNQPLAHYFISSSHNTYLTDSQIGGPSSTEAYVRAFAQGCRCVELDCWEGPGGEPVIYHGHTLTSKILFRDVVQAVRDHAFTLSPYPVILSLENHCGLEQQAAMARHLCTILGDMLVTQALDSPNPEELPSPEQLKGRVLVKGKKLPAARSEDGRALSDREEEEEDDEEEEEEVEAAAQRRLAKQISPELSALAVYCHATRLRTLHPAPNAPQPCQVSSLSERKAKKLIREAGNSFVRHNARQLTRVYPLGLRMNSANYSPQEMWNSGCQLVALNFQTPGYEMDLNAGRFLVNGQCGYVLKPACLRQPDSTFDPEYPGPPRTTLSIQVLTAQQLPKLNAEKPHSIVDPLVRIEIHGVPADCARQETDYVLNNGFNPRWGQTLQFQLRAPELALVRFVVEDYDATSPNDFVGQFTLPLSSLKQGYRHIHLLSKDGASLSPATLFIQIRIQRS [PLCD3] | 0.427 | 0.0629 | 0.0889 | -0.344 | 51.6 | 48.9 |
| MLDFFTIFSKGGLVLWCFQGVSDSCTGPVNALIRSVLLQERGGNNSFTHEALTLKYKLDNQFELVFVVGFQKILTLTYVDKLIDDVHRLFRDKYRTEIQQQSALSLLNGTFDFQNDFLRLLREAEESSKIRAPTTMKKFEDSEKAKKPVRSMIETRGEKPKEKAKNSKKKGAKKEGSDGPLATSKPVPAEKSGLPVGPENGVELSKEELIRRKREEFIQKHGRGMEKSNKSTKSDAPKEKGKKAPRVWELGGCANKEVLDYSTPTTNGTPEAALSEDINLIRGTGSGGQLQDLDCSSSDDEGAAQNSTKPSATKGTLGGMFGMLKGLVGSKSLSREDMESVLDKMRDHLIAKNVAADIAVQLCESVANKLEGKVMGTFSTVTSTVKQALQESLVQILQPQRRVDMLRDIMDAQRRQRPYVVTFCGVNGVGKSTNLAKISFWLLENGFSVLIAACDTFRAGAVEQLRTHTRRLSALHPPEKHGGRTMVQLFEKGYGKDAAGIAMEAIAFARNQGFDVVLVDTAGRMQDNAPLMTALAKLITVNTPDLVLFVGEALVGNEAVDQLVKFNRALADHSMAQTPRLIDGIVLTKFDTIDDKVGAAISMTYITSKPIVFVGTGQTYCDLRSLNAKAVVAALMKA [SRPR] | 1.98 | 2.56 | -0.0915 | 0.119 | 50.5 | 50.9 |
| MLEEAGEVLENMLKASCLPLGFIVFLPAVLLLVAPPLPAADAAHEFTVYRMQQYDLQGQPYGTRNAVLNTEARTMAAEVLSRRCVLMRLLDFSYEQYQKALRQSAGAVVIILPRAMAAVPQDVVRQFMEIEPEMLAMETAVPVYFAVEDEALLSIYKQTQAASASQGSASAAEVLLRTATANGFQMVTSGVQSKAVSDWLIASVEGRLTGLGGEDLPTIVIVAHYDAFGVAPWLSLGADSNGSGVSVLLELARLFSRLYTYKRTHAAYNLLFFASGGGKFNYQGTKRWLEDNLDHTDSSLLQDNVAFVLCLDTVGRGSSLHLHVSKPPREGTLQHAFLRELETVAAHQFPEVRFSMVHKRINLAEDVLAWEHERFAIRRLPAFTLSHLESHRDGQRSSIMDVRSRVDSKTLTRNTRIIAEALTRVIYNLTEKGTPPDMPVFTEQMQIQQEQLDSVMDWLTNQPRAAQLVDKDSTFLSTLEHHLSRYLKDVKQHHVKADKRDPEFVFYDQLKQVMNAYRVKPAVFDLLLAVGIAAYLGMAYVAVQHFSLLYKTVQRLLVKAKTQ [NCLN] | 2.71 | 3.43 | -0.129 | 0.0995 | 53.9 | 53.7 |
| MLEEDMEVAIKMVVVGNGAVGKSSMIQRYCKGIFTKDYKKTIGVDFLERQIQVNDEDVRLMLWDTAGQEEFDAITKAYYRGAQACVLVFSTTDRESFEAVSSWREKVVAEVGDIPTVLVQNKIDLLDDSCIKNEEAEALAKRLKLRFYRTSVKEDLNVNEVFKYLAEKYLQKLKQQIAEDPELTHSSSNKIGVFNTSGGSHSGQNSGTLNGGDVINLRPNKQRTKKNRNPFSSCSIP [RAB23] | 1.88 | 1.67 | -0.139 | -0.0011 | 53.2 | 53.2 |
| MLERRCRGPLAMGLAQPRLLSGPSQESPQTLGKESRGLRQQGTSVAQSGAQAPGRAHRCAHCRRHFPGWVALWLHTRRCQARLPLPCPECGRRFRHAPFLALHRQVHAAATPDLGFACHLCGQSFRGWVALVLHLRAHSAAKRPIACPKCERRFWRRKQLRAHLRRCHPPAPEARPFICGNCGRSFAQWDQLVAHKRVHVAEALEEAAAKALGPRPRGRPAVTAPRPGGDAVDRPFQCACCGKRFRHKPNLIAHRRVHTGERPHQCPECGKRFTNKPYLTSHRRIHTGEKPYPCKECGRRFRHKPNLLSHSKIHKRSEGSAQAAPGPGSPQLPAGPQESAAEPTPAVPLKPAQEPPPGAPPEHPQDPIEAPPSLYSCDDCGRSFRLERFLRAHQRQHTGERPFTCAECGKNFGKKTHLVAHSRVHSGERPFACEECGRRFSQGSHLAAHRRDHAPDRPFVCPDCGKAFRHKPYLAAHRRIHTGEKPYVCPDCGKAFSQKSNLVSHRRIHTGERPYACPDCDRSFSQKSNLITHRKSHIRDGAFCCAICGQTFDDEERLLAHQKKHDV [REPIN1] | -0.836 | -2.05 | -0.0234 | -0.0762 | 54.4 | 52.9 |
